We go through one substance from US20150368357A1.

In experiment [1] the target is HER2 (Human Epidermal Growth Factor Receptor 2) expressed on SK-BR-3 cells (human) (UniProt P04626). The experiment is described as follows: flow cytometry, SK-BR-3 cells; mAb 50 ng/ml as headed. For orientation: In flow cytometry, cells or beads pass a laser one at a time.
Experiment [2] has the same target. Put plainly: flow cytometry, SK-BR-3 cells; mAb 0.2 ng/ml as headed.
Experiment [3] has the same target. Put plainly: flow cytometry, SK-BR-3 cells; mAb 0.4 ng/ml as headed.

With “Anti-idiotypic FVIII (a chimeric anti-Factor VIII antibody produced by rat hybridoma YB2/0)”, the MFI came to 16 MFI in experiment [1], 0 MFI in experiment [2] and 0 MFI in experiment [3].
